We go through two substances from article PMC6769691.

Test [1] concerns the target TNFRs on MR300 cells (human (endogenous in MR300)). The test is described as follows: immunostaining of cells or tissue; competition on adherent MR300 cells (CNGRC-binder): hTNF-Fc (1:50) staining, 1 h at room temperature, Alexa-594 anti-human antibody, with 0.01 to 30 µg/mL unlabeled NGR-hTNF or hTNF; percent of control.
Test [2] concerns the target CD13 (aminopeptidase N), CNGRC-binder isoform, on HUVEC, mesoangioblasts (MB) and MR300 cells (human (endogenous in HUVEC, MB, MR300)) (UniProt P15144).

Chain of CD13 (aminopeptidase N), CNGRC-binder isoform, on HUVEC, mesoangioblasts (MB) and MR300 cells (human (endogenous in HUVEC, MB, MR300)) (P15144 whole entry, canonical isoform): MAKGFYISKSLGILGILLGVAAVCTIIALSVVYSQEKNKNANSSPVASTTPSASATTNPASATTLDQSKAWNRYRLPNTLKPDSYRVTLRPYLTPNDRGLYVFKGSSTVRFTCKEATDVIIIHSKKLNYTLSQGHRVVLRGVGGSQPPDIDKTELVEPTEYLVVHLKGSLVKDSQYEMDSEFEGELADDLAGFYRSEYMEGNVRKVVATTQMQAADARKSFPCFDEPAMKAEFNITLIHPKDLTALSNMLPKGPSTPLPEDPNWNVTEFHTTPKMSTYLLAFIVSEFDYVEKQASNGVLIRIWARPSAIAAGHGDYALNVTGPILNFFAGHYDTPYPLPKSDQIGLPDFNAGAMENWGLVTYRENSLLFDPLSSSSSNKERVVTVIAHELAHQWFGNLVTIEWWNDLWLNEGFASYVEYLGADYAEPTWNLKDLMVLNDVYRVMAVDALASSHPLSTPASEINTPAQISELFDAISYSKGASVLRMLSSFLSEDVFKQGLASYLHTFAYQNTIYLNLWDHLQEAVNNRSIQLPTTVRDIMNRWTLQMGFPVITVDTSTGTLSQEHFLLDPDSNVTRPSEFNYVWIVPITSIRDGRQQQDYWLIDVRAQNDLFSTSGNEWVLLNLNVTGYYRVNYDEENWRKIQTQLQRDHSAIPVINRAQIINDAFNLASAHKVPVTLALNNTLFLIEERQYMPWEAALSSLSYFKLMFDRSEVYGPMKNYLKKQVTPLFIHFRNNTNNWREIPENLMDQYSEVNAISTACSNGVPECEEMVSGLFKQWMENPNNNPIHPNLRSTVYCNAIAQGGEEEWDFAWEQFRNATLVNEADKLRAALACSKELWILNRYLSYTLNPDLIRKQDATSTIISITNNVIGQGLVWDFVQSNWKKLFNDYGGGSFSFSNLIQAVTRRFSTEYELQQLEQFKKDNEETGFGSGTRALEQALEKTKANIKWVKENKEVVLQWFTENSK

On to hTNF (ligand), for which, in test [1], the IC50 turned out to be 0.02 µM.
For the substance NGR-hTNF (ligand), in test [2], the phosphorylation of Akt-Ser473 in MR300 cells treated with NGR-hTNF in comparison to hTNF (Kinexus phospho-site screen) was -36%, the phosphorylation of Erk1 in MR300 cells treated with NGR-hTNF in comparison to hTNF (Kinexus phospho-site screen) was -36% and the phosphorylation of Erk2 in MR300 cells treated with NGR-hTNF in comparison to hTNF (Kinexus phospho-site screen) was -35%. In test [1], this substance returned an IC50 of 0.005 µM.

Usually IC50 stands for the concentration at which inhibition is half-maximal. Higher therefore signals a need for much substance.
